Test results as given in patent publication US20250154240A1, “ANTI-HUMAN CXCL1 ANTIBODY” (CHIOME BIOSCIENCE INC., priority 2022, published 2025).

What was measured:
HuCXCL3 = biological target: T1, HuCXCL3 (Homo sapiens, UniProt P19876); assay: FACS, inhibition of binding of APC-labeled HuCXCL3 to HEK293 cells forced to express HuCXCR2; type: cell-based; conditions: APC-labeled ligand 10 μg/mL; HEK293 cells expressing HuCXCR2
T1 construct: purchased PROTEINTECH
T1 sequence (P19876 35-107): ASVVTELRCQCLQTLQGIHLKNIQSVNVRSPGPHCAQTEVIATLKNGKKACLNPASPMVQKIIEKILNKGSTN
Protocol: (§1) Chemokines are stabilized by directly binding to GAG on the cell surface and thereby allow efficient signal transduction to their receptors. […] Then, to evaluate whether Hu5A-5E11 inhibits the binding of CXCLs to cells, the binding of fluorescently labeled CXCLs to cells was measured as fluorescence intensity by flow cytometry in FACS. For this purpose, HEK293 cells forced to express HuCXCR2 were used. For use as HuCXCL1, 2, 3 and 5 and MsCXCL1, the proteins in above were labeled with APC.
(§2) The cultured cells were detached and washed with PBS, and then suspended at 5.0× 10^5 cells/mL in PBS containing 1% BSA (hereinafter referred to as the FACS buffer). Each of the APC-labeled ligands and Hu5A-5E11 were mixed at final concentrations of 10 μg/mL and 16.7 μg/mL, respectively, and reacted at room temperature for 30 minutes, and then added to the cell suspension and reacted on ice for 30 minutes. After washing with the FACS buffer, the cells were suspended again in PBS containing 1% 7-AAD, 0.5% BSA and 2 mM EDTA, followed by the above flow cytometry to measure fluorescence intensity.

HuCXCL1 [1] = biological target: T2, HuCXCL1 (Homo sapiens, UniProt P09341); assay: FACS, inhibition of binding of APC-labeled HuCXCL1 to HEK293 cells forced to express HuCXCR2; type: cell-based; conditions: APC-labeled ligand 10 μg/mL; HEK293 cells expressing HuCXCR2
T2 construct: made in house; host or cells: Expi293 expression system (transient), protein from the culture supernatant
T2 sequence (P09341 35-107): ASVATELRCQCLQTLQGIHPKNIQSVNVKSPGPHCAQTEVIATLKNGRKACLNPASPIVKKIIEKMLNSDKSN
Protocol: as §1, §2

MsCXCL1 = biological target: T3, MsCXCL1 (Mus musculus, UniProt P12850); assay: ELISA, inhibition of binding of MsCXCL1 to GAG (heparin, heparan sulfate); type: biochemical; parameters: purchased PROTEINTECH; conditions: antibody 0 to 10 μg/mL; biotin-labeled heparin or heparan sulfate 10 μg/mL
T3 sequence (P12850 25-96): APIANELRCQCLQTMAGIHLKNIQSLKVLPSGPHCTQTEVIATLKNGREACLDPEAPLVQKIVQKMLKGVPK
Protocol: (§3) Thus, the effect of Hu5A-5E11 on the binding of CXCLs to GAG was evaluated by ELISA assay using plates on which the antigen (HuCXCL1 protein) used for immunization or HuCXCL2, 3 and 5 and MsCXCL1 and 2 proteins had been directly immobilized. CXCLs other than HuCXCL1 were purchased from PROTEINTECH and used. Biotin-labeled heparan sulfate and heparin were purchased from PG Research and used.
(§4) To 96-well plates, phosphate-buffered saline (PBS) containing 3 μg/mL of HuCXCL1, 2, 3 or 5 or MsCXCL1 or 10 μg/mL of MsCXCL2 was added in a volume of 50 μL per well, and the plates were allowed to stand overnight at 4° C. After removal of the antigen solutions, PBS containing 0.05% Tween-20 (hereinafter referred to as the blocking solution) was added to each well for blocking reaction, and the plates were allowed to stand at room temperature for 30 minutes. […] TMB (Dako) was added as a chromogenic substrate solution to cause color development, and 1 N sulfuric acid was added to stop the reaction, followed by measurement of absorbance at 450 nm. The binding rate of CXCLs to GAG was calculated as a ratio relative to the absorbance measured in the absence of the antibody, which was set to 100%.

HuCXCL1 [2] = biological target: T2, HuCXCL1; assay: ELISA, inhibition of binding of HuCXCL1 to GAG (heparin, heparan sulfate); type: biochemical; conditions: antibody 0 to 10 μg/mL; biotin-labeled heparin or heparan sulfate 10 μg/mL
Protocol: as §3, §4

HuCXCL2 = biological target: T4, HuCXCL2 (Homo sapiens, UniProt P19875); assay: ELISA, inhibition of binding of HuCXCL2 to GAG (heparin, heparan sulfate); type: biochemical; conditions: antibody 0 to 10 μg/mL; biotin-labeled heparin or heparan sulfate 10 μg/mL
T4 construct: purchased PROTEINTECH
T4 sequence (P19875 35-107): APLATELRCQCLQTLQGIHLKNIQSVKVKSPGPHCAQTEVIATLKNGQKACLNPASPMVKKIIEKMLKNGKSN
Protocol: as §3, §4

B1: Hu5A-5E11: humanized antibody VH1/VL1; VH SEQ ID NO: 76, VL SEQ ID NO: 78 (antibody, V domains shown)
VH: QVQLVQSGAEVKKPGSSVKVSCKASGYAFSDYWMNWVRQAPGQGLEWIGQIYPGSGDTNYNAKFKGKGTITADKSTSTAYMELSSLRSEDTAVYYCARERDYDVAMDYWGQGTTVTVSS
VL: DIQMTQSPSSLSASVGDRVTITCKASQDINKYIAWFQQKPGKAPKLVIHYTSILQPGVPSRFSGSGSGTDYTFTISSLQPEDIATYYCLQYDNLPWTFGGGTKVEIK
HuCXCL3
  Inhibitory activity against the binding of HuCXCL3 to cells (fluorescence intensity): reduce the fluorescence intensity of the cells in an antibody concentration-dependent manner
HuCXCL1 [1]
  Inhibitory activity against the binding of HuCXCL1 to cells (fluorescence intensity): reduce the fluorescence intensity of the cells in an antibody concentration-dependent manner
MsCXCL1
  Inhibitory activity against the binding of MsCXCL1 to GAG: inhibit the binding of HuCXCL1, 2, 3 and 5 and MsCXCL1 to GAG in an antibody concentration-dependent manner
HuCXCL1 [2]
  Inhibitory activity against the binding of HuCXCL1 to GAG: inhibit the binding of HuCXCL1, 2, 3 and 5 and MsCXCL1 to GAG in an antibody concentration-dependent manner
HuCXCL2
  Inhibitory activity against the binding of HuCXCL2 to GAG: inhibit the binding of HuCXCL1, 2, 3 and 5 and MsCXCL1 to GAG in an antibody concentration-dependent manner
